Data on 1 molecule can be found in paper PMC4957052 (The Journal of Biological Chemistry, 2016).

This assay has as its target T1, M. musculus αT-catenin (wild type, full length) (M. musculus, UniProt Q65CL1 1-895).
T1 construct: Cloned into pGEX-TEV; cleaved from GST with tobacco etch virus protease; also called αT (testes)-catenin; WT αT-catenin; source: E. coli BL21(DE3), purified (glutathione-agarose, TEV cleavage, Mono Q, S200 gel filtration)
T1 sequence (looked up): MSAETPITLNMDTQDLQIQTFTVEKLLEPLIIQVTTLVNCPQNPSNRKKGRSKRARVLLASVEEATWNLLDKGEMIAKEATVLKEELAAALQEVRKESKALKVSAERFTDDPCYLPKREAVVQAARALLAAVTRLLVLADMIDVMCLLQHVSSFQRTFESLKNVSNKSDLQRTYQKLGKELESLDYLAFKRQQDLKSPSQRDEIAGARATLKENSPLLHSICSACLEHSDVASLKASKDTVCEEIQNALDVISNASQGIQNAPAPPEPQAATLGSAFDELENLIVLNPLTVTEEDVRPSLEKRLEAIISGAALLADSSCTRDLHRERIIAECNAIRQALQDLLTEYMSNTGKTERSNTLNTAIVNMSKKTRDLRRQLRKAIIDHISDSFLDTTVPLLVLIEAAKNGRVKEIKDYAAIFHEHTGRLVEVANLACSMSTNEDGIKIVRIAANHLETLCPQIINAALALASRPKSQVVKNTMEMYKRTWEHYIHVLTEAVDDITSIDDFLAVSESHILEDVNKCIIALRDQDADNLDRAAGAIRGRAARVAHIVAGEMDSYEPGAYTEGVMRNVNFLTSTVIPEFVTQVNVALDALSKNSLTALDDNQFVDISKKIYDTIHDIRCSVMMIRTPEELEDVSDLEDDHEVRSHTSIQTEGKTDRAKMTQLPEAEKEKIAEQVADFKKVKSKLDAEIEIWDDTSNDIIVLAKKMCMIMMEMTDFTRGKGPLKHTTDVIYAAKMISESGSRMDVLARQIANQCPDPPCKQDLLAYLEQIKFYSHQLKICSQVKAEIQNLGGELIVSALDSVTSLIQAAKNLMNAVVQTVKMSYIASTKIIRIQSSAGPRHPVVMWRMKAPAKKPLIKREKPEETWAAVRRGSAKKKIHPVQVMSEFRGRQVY
The assay is described as follows: pull-down; 1-15 μg αT-catenin or V94D added to 15 μg GST-β-catenin on glutathione-agarose in 20 mM Tris pH 8, 150 mM NaCl, 5 mM DTT; >2 h at 4 °C (legend: 1 h at room temperature); five washes in PBS + 0.05% Tween 20, 5 mM DTT; Coomassie. The settings on record: both partners purified.

B1: GST-tagged full-length β-catenin (natural protein, mouse, UniProt Q02248 1-781, looked up)
chain: MATQADLMELDMAMEPDRKAAVSHWQQQSYLDSGIHSGATTTAPSLSGKGNPEEEDVDTSQVLYEWEQGFSQSFTQEQVADIDGQYAMTRAQRVRAAMFPETLDEGMQIPSTQFDAAHPTNVQRLAEPSQMLKHAVVNLINYQDDAELATRAIPELTKLLNDEDQVVVNKAAVMVHQLSKKEASRHAIMRSPQMVSAIVRTMQNTNDVETARCTAGTLHNLSHHREGLLAIFKSGGIPALVKMLGSPVDSVLFYAITTLHNLLLHQEGAKMAVRLAGGLQKMVALLNKTNVKFLAITTDCLQILAYGNQESKLIILASGGPQALVNIMRTYTYEKLLWTTSRVLKVLSVCSSNKPAIVEAGGMQALGLHLTDPSQRLVQNCLWTLRNLSDAATKQEGMEGLLGTLVQLLGSDDINVVTCAAGILSNLTCNNYKNKMMVCQVGGIEALVRTVLRAGDREDITEPAICALRHLTSRHQEAEMAQNAVRLHYGLPVVVKLLHPPSHWPLIKATVGLIRNLALCPANHAPLREQGAIPRLVQLLVRAHQDTQRRTSMGGTQQQFVEGVRMEEIVEGCTGALHILARDVHNRIVIRGLNTIPLFVQLLYSPIENIQRVAAGVLCELAQDKEAAEAIEAEGATAPLTELLHSRNEGVATYAAAVLFRMSEDKPQDYKKRLSVELTSSLFRTEPMAWNETADLGLDIGAQGEALGYRQDDPSYRSFHSGGYGQDALGMDPMMEHEMGGHHPGADYPVDGLPDLGHAQDLMDGLPPGDSNQLAWFDTDL
notes: β-catenin, full length; also called GST-β-catenin; GST-tagged β-catenin
With B1, the binding result was “binds”.
